{"source": "paper PMC10160106", "about": "“Symport and antiport mechanisms of human glutamate transporters” (Nature Communications, 2023)", "proteins": {"B1": {"name": "MinCys EAAT3 K269C/W441C crosslinked using Hg2+ (EAAT3-X) (natural protein, human, UniProt P43005 1-524, looked up)", "chain": "MGKPARKGAEWKRFLKNNWVLLSTVAAVVLGITTGVLVREHSNLSTLEKFYFAFPGEILMRMLKLIILPLIISSMITGVAALDSNVSGKIGLRAVVYYFATTLIAVILGIVLVVSIKPGVTQKVGEIARTGSTPEVSTVDAMLDLIRNMFPENLVQAAFQQYKTKREEVKPPSDPEMTMTEESFTAVMTTAISKTKTKEYKIVGMYSDGINVLGLIVFALVFGLVIGKMGEKGQILVDFFNALSDATMKIVQIIMWYMPLGILFLIAGCIIEVEDWEIFRKLGLYMATVLTGLAIHSIVILPLIYFIVVRKNPFRFAMGMAQALLTALMISSSSATLPVTFRCAEENNQVDKRITRFVLPVGATINMDGTALYEAVAAVFIAQLNDLDLGIGQIITISITATSASIGAAGVPQAGLVTMVIVLSAVGLPAEDVTLIIAVDCLLDRFRTMVNVLGDAFGTGIVEKLSKKELEQMDVSSEVNIVNPFALESTILDNEDSDTKKSYVNGGFAVDKSDTISFTQTSQF", "modifications": "Hg2+ crosslink between C269 and C441", "notes": "Homotrimer; also called crosslinked EAAT3-X; MiniCys EAAT3 K269C/W441C; source: HEK 293F, transfected, purified (Strep-Tactin, SEC in GDN), crosslinked with HgCl2; not shown: Strep-II, N-terminal, cleaved; GFP, N-terminal, cleaved"}}, "target": "the molecule itself", "assay": "cryo-EM structure; EAAT3-X in 0.01% GDN, 20 mM HEPES-Tris pH 7.4, in 200 mM NaCl and 20 mM L-glutamate, 300 mM KCl, 150 mM NMDG chloride or 300 mM NaCl; maps refined with C3 symmetry, then symmetry expansion and local classification of protomers", "data": [{"protein": "B1", "values": [{"measurement": "stoichiometry N", "result": 3}]}]}
